We go through one protein from paper doi:10.1101/188136 (bioRxiv, 2017).

The data set concerns the molecule itself. Nature of the data set: crystal structure.

B1: BrlR (transcriptional regulator BrlR from Pseudomonas aeruginosa) (natural protein, UniProt Q9HUT5 1-270, looked up)
chain: MLTIGQLARIFEISTKTLRHYDAIGLFVPARTGSDNGYRYYQPEQIEQLSRILALRRLDVPLEAIDRLKRDGALDDPQRLRHFLQRHQHTLREEISARQRLLAELDRTLATLAHWRIRNMHARIVERPAFSVVGMEYFGSAPGDTIGQLWERFIPREHEIAGKHDPEVSYGICAQQPNGEFHYVAGFEVQEGWPVPEGMVRFQVPAQKYAVFTHKGTAPQIAESFQAIYSHLLAERGLEPKAGVDFEYYDQRFRGPLDPNSQVDLYIPIY
Take B1: the stoichiometry N (commonly a count of units in the complex or per binding partner) is 4.
